Source: PMC6007377

Molecular target: TDG N140A (human, UniProt Q13569 1-410, N140A)
Assay: fluorescence anisotropy

Sequence of TDG N140A (Q13569 whole entry N140A): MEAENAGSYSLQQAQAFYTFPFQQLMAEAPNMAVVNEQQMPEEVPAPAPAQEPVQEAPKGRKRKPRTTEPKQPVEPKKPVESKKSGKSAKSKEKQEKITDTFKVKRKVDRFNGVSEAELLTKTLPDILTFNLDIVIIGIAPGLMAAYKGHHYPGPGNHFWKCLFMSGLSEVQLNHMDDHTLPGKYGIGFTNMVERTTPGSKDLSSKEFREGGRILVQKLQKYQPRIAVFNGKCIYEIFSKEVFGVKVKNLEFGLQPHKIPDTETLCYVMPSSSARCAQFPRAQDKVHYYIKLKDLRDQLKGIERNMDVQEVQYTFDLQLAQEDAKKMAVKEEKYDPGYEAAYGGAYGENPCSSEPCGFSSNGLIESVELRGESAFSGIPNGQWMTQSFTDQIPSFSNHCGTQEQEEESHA

Row | Binder | Kd [nM]
1 | G·caC 28mer (TR) (dsDNA, 5-carboxylcytosine at position 17 of strand 1, paired with G) DNA 1: GTGTCACCACTGCTCACGTACAGAGCTG DNA 2: CAGCTCTGTACGTGAGCAGTGGTGACAC | 2.3 ± 0.6
2 | G·fC 28mer (TR) (dsDNA, 5-formylcytosine at position 17 of strand 1, paired with G) DNA 1: GTGTCACCACTGCTCACGTACAGAGCTG DNA 2: CAGCTCTGTACGTGAGCAGTGGTGACAC | 4 ± 0.8
